Measurements as given in patent US20140170149A1 (Genmab, published 2014).
Like-named read-outs stand apart in the source and are kept apart here.

What was measured:
[1] = molecular target: T1, human epidermal growth factor receptor 2 (HER2) (human, UniProt P04626 23-1255); experiment: cell-based or functional assay
[2] = molecular target: T1, human epidermal growth factor receptor …; experiment: flow cytometry on A431 cells (low HER2), PE-goat anti-human IgG, MFI; EC50 by non-linear regression (Example 12)
Procedure: (§1) Binding of HER2 antibodies was detected using a Phycoerythrin (PE)-conjugated goat-anti-human IgG antibody (Jackson). […] EC₅₀ values were determined by means of non-linear regression (sigmoidal dose-response with variable slope) using GraphPad Prism V4.03 software (GraphPad Software, San Diego, Calif., USA).

[3] = molecular target: T1, human epidermal growth factor receptor …; experiment: flow cytometry on AU565 cells (high HER2), PE-goat anti-human IgG, MFI; EC50 by non-linear regression (Example 12)
Procedure: as §1

[4] = molecular target: T2, human CD3 protein complex (human, UniProt P07766 23-207; P09693 23-182; P04234 22-171; P20963 22-164); experiment: flow cytometry on Jurkat cells (CD3-expressing T cell line), MFI (PE) (Example 21)
T2 construct: whole, on cells; also called CD3 on Jurkat cells
T2 sequence (P07766 23-207, form in doubt, chain 1 of 4): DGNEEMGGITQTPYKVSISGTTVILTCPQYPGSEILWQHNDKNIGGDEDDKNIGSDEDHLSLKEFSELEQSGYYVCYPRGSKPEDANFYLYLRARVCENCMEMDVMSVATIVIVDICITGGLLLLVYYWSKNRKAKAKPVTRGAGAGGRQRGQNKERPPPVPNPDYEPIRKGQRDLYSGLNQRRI
T2 sequence (P09693 23-182, form in doubt, chain 2 of 4): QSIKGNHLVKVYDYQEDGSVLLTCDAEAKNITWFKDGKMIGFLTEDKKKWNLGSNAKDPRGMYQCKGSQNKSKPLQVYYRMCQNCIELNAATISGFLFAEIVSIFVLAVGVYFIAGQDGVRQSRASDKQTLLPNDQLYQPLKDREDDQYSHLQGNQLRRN
T2 sequence (P04234 22-171, form in doubt, chain 3 of 4): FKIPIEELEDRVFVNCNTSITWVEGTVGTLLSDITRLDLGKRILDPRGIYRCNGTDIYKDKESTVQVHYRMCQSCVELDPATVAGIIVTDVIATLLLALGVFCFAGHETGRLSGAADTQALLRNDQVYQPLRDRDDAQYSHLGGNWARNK
T2 sequence (P20963 22-164, form in doubt, chain 4 of 4): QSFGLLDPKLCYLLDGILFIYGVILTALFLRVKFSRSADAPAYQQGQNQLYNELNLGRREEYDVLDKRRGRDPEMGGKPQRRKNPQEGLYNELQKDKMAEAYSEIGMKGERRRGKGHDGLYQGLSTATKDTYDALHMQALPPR

[5] = molecular target: T2, human CD3 protein complex; experiment: as above; remark: listed apart in the source
[6] = molecular target: T2, human CD3 protein complex; experiment: as above; remark: listed apart in the source
[7] = molecular target: T1, human epidermal growth factor receptor …; experiment: flow cytometry on CHO-S cells transiently transfected with hu-HER2, PE-goat anti-human IgG, MFI (Example 24)
[8] = molecular target: T1, human epidermal growth factor receptor …; experiment: flow cytometry on A431 cells (low HER2), PE-goat anti-human IgG, MFI; EC50 by non-linear regression (Example 12); remark: listed apart in the source
Procedure: as §1

[9] = molecular target: T1, human epidermal growth factor receptor …; experiment: flow cytometry on AU565 cells (high HER2), PE-goat anti-human IgG, MFI; EC50 by non-linear regression (Example 12); remark: listed apart in the source
Procedure: as §1

B1: HER2 HuMab 106 (antibody, V domains shown)
VH: EVQLVQSGAEVKKPGESLKISCKGSGYSFTRYWIGWVRQMPGKGLEWMGIIYPGDSDTRYSPSFQGQVTISADKSISTAYLQWSSLKASDTAMYYCARLTGDRGFDYYSGMDVWGQGTTVTVSS
VL: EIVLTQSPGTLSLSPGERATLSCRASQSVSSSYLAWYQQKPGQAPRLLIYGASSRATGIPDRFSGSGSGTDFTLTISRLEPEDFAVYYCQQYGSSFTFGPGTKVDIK
Which “EC50, fab-CypHer5E internalization assay, AU565 cells” value [1] does the source give for B1 here?
Its value is 0.0686 µg/mL.

What about the “Maximal MFI, fab-CypHer5E internalization assay, AU565 cells” value [1] of the same binder?
Its value is 57400 MFI.

And the EC50 [2]?
Its EC50 is 1.66 µg/mL.

What about the EC50 [3] of the same binder?
The EC50 was 1.55 µg/mL.

B2: IgG1-huOKT3-F405L (antibody, V domains shown)
VH: QVQLVQSGGGVVQPGRSLRLSCKASGYTFTRYTMHWVRQAPGKGLEWIGYINPSRGYTNYNQKVKDRFTISRDNSKNTAFLQMDSLRPEDTGVYFCARYYDDHYSLDYWGQGTPVTVSS
VL: DIQMTQSPSSLSASVGDRVTITCSASSSVSYMNWYQQTPGKAPKRWIYDTSKLASGVPSRFSGSGSGTDYTFTISSLQPEDIATYYCQQWSSNPFTFGQGTKLQIT
notes: Expressed as IgG1,κ with F405L; also called huOKT3-C114S-gLC; IgG1-OKT3
With B2 as the binder, how does the “EC50 (read off the curve)” value [4] read?
The value was ~0.02 µg/mL.

B3: IgG1-HUM291-F405L (antibody, V domains shown)
VH: QVQLVQSGAEVKKPGASVKVSCKASGYTFISYTMHWVRQAPGQGLEWMGYINPRSGYTHYNQKLKDKATLTADKSASTAYMELSSLRSEDTAVYYCARSAYYDYDGFAYWGQGTLVTVSS
VL: DIQMTQSPSSLSASVGDRVTITCSASSSVSYMNWYQQKPGKAPKRLIYDTSKLASGVPSRFSGSGSGTDFTLTISSLQPEDFATYYCQQWSSNPPTFGGGTKVEIK
notes: Expressed as IgG1,κ with F405L; also called visilizumab
B3 was tested. Which “EC50 (read off the curve)” value [5] did it give?
The value was ~0.02 µg/mL.

B4: huOKT3-F405L x b12-K409R (bispecific antibody)
heavy chain, CD3 arm (huOKT3-C114S-gLC, IgG1-F405L): not shown
light chain, CD3 arm: DIQMTQSPSSLSASVGDRVTITCSASSSVSYMNWYQQTPGKAPKRWIYDTSKLASGVPSRFSGSGSGTDYTFTISSLQPEDIATYYCQQWSSNPFTFGQGTKLQIT
heavy chain, b12 arm (IgG1-K409R): not shown
light chain, b12 arm: EIVLTQSPGTLSLSPGERATFSCRSSHSIRSRRVAWYQHKPGQAPRLVIHGVSNRASGISDRFSGSGSGTDFTLTITRVEPEDFALYYCQVYGASSYTFGQGTKLERK
notes: also called huOKT3 x b12; CD3xb12 control
Which “EC50 (read off the curve)” value [4] does the source give for B4 here?
Its value is ~3 µg/mL.

B5: IgG1-hu-CLB-T3/4-F405L (antibody, V domains shown)
VH: EVQLVESGGGLVKPGGSLRLSCAASGFTFSSYGMFWVRQAPGKGLEWVATISRYSRYIYYPDSVKGRFTISRDNAKNSLYLQMNSLRAEDTAVYYCARRPLYGSSPDYWGQGTLVTVSS
VL: EIVLTQSPATLSLSPGERATLSCSASSSVTYVHWYQQKPGQAPRLLIYDTSKLASGIPARFSGSGSGTDFTLTISSLEPEDFAVYYCFQGSGYPLTFGSGTKLEMR
notes: Expressed as IgG1,κ with F405L
For B5, which “EC50 (read off the curve)” value [6] is on record?
The value was ~0.03 µg/mL.

B6: IgG1-hu-CLB-T3/4-F405L × IgG1-HER2-169-K409R (bispecific antibody)
heavy 1: not shown
VL 1: EIVLTQSPATLSLSPGERATLSCRASQSVSSYLAWYQQKPGQAPRLLIYDASNRATGIPARFSGSGSGTDFTLTISSLEPEDFAVYYCQQRSNWPRTFGQGTKVEIK
heavy 2: not shown
VL 2: EIVLTQSPATLSLSPGERATLSCSASSSVTYVHWYQQKPGQAPRLLIYDTSKLASGIPARFSGSGSGTDFTLTISSLEPEDFAVYYCFQGSGYPLTFGSGTKLEMR
notes: Made by 2-MEA-induced Fab-arm exchange; IgG1,κ
For B6, which “EC50 (read off the curve)” value [6] is on record?
The value was ~0.2 µg/mL.

B7: huCLB-T3/4-F405L x b12-K409R (bispecific antibody)
heavy chain, CD3 arm (huCLB-T3/4, IgG1-F405L): not shown
light chain, CD3 arm: EIVLTQSPATLSLSPGERATLSCSASSSVTYVHWYQQKPGQAPRLLIYDTSKLASGIPARFSGSGSGTDFTLTISSLEPEDFAVYYCFQGSGYPLTFGSGTKLEMR
heavy chain, b12 arm (IgG1-K409R): not shown
light chain, b12 arm: EIVLTQSPGTLSLSPGERATFSCRSSHSIRSRRVAWYQHKPGQAPRLVIHGVSNRASGISDRFSGSGSGTDFTLTITRVEPEDFALYYCQVYGASSYTFGQGTKLERK
notes: also called huCLB-T3/4 x b12; CD3xb12 control
With B7 as the binder, how does the “EC50 (read off the curve)” value [6] read?
The value was ~0.2 µg/mL.

B8: HER2 HuMab 153 (antibody, V domains shown)
VH: QVQLVESGGGVVQPGRSLRLSCAASGFTFSDYVIHWVRQAPGKGLEWVTVISYDGSNKYYADSVKGRFTISRDNSKNTLYLQMNSLSAEDTAMYYCARGGITGTTGVFDYWGQGTLVTVSS
VL: DIQMTQSPSSLSASVGDRVTITCRASQGISSWLAWYQQKPEKAPKSLIYDASSLQSGVPSRFSGSGYGTDFSLTISSLQPEDFAIYYCQQYKSYPITFGQGTRLEIK
notes: also called PC1014-153; TH1014-153
B8 was tested. Which “EC50, fab-CypHer5E internalization assay, AU565 cells” value [1] did it give?
The value was ~0.0149 µg/mL.

And the “Maximal MFI, fab-CypHer5E internalization assay, AU565 cells” value [1]?
The value was 87500 MFI.

What about the “EC50 (read off the curve)” value [7] of the same binder?
Its value is ~0.04 µg/mL.

And the EC50 [8]?
Its EC50 is 0.244 µg/mL.

And the EC50 [9]?
Its EC50 is 0.626 µg/mL.

B9: IgG1-HUM291-F405L × IgG1-HER2-153-K409R (bispecific antibody)
heavy 1: not shown
VL 1: DIQMTQSPSSLSASVGDRVTITCRASQGISSWLAWYQQKPEKAPKSLIYDASSLQSGVPSRFSGSGYGTDFSLTISSLQPEDFAIYYCQQYKSYPITFGQGTRLEIK
heavy 2: not shown
VL 2: DIQMTQSPSSLSASVGDRVTITCSASSSVSYMNWYQQKPGKAPKRLIYDTSKLASGVPSRFSGSGSGTDFTLTISSLQPEDFATYYCQQWSSNPPTFGGGTKVEIK
notes: Made by 2-MEA-induced Fab-arm exchange; IgG1,κ; also called HUM291×153
How did the “EC50 (read off the curve)” value [5] turn out when B9 was run?
The value was ~2 µg/mL.

B10: IgG1-hu-CLB-T3/4-F405L × IgG1-HER2-153-K409R (bispecific antibody)
heavy 1: not shown
VL 1: DIQMTQSPSSLSASVGDRVTITCRASQGISSWLAWYQQKPEKAPKSLIYDASSLQSGVPSRFSGSGYGTDFSLTISSLQPEDFAIYYCQQYKSYPITFGQGTRLEIK
heavy 2: not shown
VL 2: EIVLTQSPATLSLSPGERATLSCSASSSVTYVHWYQQKPGQAPRLLIYDTSKLASGIPARFSGSGSGTDFTLTISSLEPEDFAVYYCFQGSGYPLTFGSGTKLEMR
notes: Made by 2-MEA-induced Fab-arm exchange; IgG1,κ; also called huCLB-T3/4×HER2 153
For B10, which “EC50 (read off the curve)” value [6] is on record?
Its value is ~0.2 µg/mL.

B11: IgG1-huOKT3-F405L × IgG1-HER2-153-K409R (bispecific antibody)
heavy 1: not shown
VL 1: DIQMTQSPSSLSASVGDRVTITCRASQGISSWLAWYQQKPEKAPKSLIYDASSLQSGVPSRFSGSGYGTDFSLTISSLQPEDFAIYYCQQYKSYPITFGQGTRLEIK
heavy 2: not shown
VL 2: DIQMTQSPSSLSASVGDRVTITCSASSSVSYMNWYQQTPGKAPKRWIYDTSKLASGVPSRFSGSGSGTDYTFTISSLQPEDIATYYCQQWSSNPFTFGQGTKLQIT
notes: Made by 2-MEA-induced Fab-arm exchange; IgG1,κ; also called huOKT3×153
B11 was tested. Which “EC50 (read off the curve)” value [4] did it give?
The value was ~2 µg/mL.
